Data from the Human Domainome abundance scans (Beltran et al. 2025).
± gives the uncertainty stated by the source.

B1: PDZ and LIM domain protein 2, residues 284 to 339; numbered along this chain, Q96JY6 (parent)
chain: HTCEKCSTSIANQAVRIQEGRYRHPGCYTCADCGLNLKMRGHFWVGDELYCEKHAR

Variants of: B1
Assay: abundance fitness (aPCA) (normalised: wild type 0, dead -1); higher = more abundant; growth selection in yeast, the domain comes from the species named
Settings: Homo sapiens

| Variant | abundance fitness |
| --- | --- |
| R40L | 0.129 ± 0.074 |
| R40D | 0.027 ± 0.16 |
| R40I | -0.293 ± 0.12 |
| R40S | 0.079 ± 0.073 |
| R40Q | -0.091 ± 0.11 |
| R40A | 0.041 ± 0.12 |
| R40P | 0.14 ± 0.13 |
| R40C | 0.221 ± 0.1 |
| R40K | 0.188 ± 0.079 |
| R40F | -0.156 ± 0.098 |
| R40V | 0.092 ± 0.063 |
| R40E | 0.066 ± 0.071 |
| R40H | 0.274 ± 0.11 |
| R40N | 0.21 ± 0.13 |
| R40Y | -0.163 ± 0.12 |
| R40T | -0.009 ± 0.1 |
| R40M | 0.063 ± 0.059 |
| R40G | 0.219 ± 0.061 |
| A31E | 0.082 ± 0.12 |
| A31D | -0.175 ± 0.11 |
| A31H | -0.257 ± 0.1 |
| A31N | 0.086 ± 0.12 |
| A31W | -0.052 ± 0.12 |
| A31R | 0.047 ± 0.067 |

| Variant | abundance fitness |
| --- | --- |
| A31I | -0.454 ± 0.19 |
| A31M | 0.027 ± 0.087 |
| A31Y | -0.226 ± 0.17 |
| A31G | 0.019 ± 0.08 |
| A31P | -0.238 ± 0.084 |
| A31S | -0.103 ± 0.085 |
| A31T | -0.099 ± 0.095 |
| A31F | 0.039 ± 0.13 |
| A31V | -0.029 ± 0.075 |
| A31C | -0.146 ± 0.12 |
| A31L | 0.119 ± 0.079 |
| G34N | 0.108 ± 0.13 |
| G34H | 0.2 ± 0.17 |
| G34P | -0.356 ± 0.073 |
| G34K | 0.073 ± 0.089 |
| G34T | -0.177 ± 0.1 |
| G34Q | -0.03 ± 0.12 |
| G34W | -0.799 ± 0.14 |
| G34I | -0.352 ± 0.2 |
| G34F | -0.196 ± 0.13 |
| G34E | -0.146 ± 0.16 |
| G34A | -0.09 ± 0.09 |
| G34C | -0.413 ± 0.1 |
| G34L | -0.165 ± 0.064 |

| Variant | abundance fitness |
| --- | --- |
| G34S | 0.024 ± 0.076 |
| G34Y | -0.331 ± 0.13 |
| G34R | -0.064 ± 0.084 |
| G46F | -0.624 ± 0.24 |
| G46V | -0.226 ± 0.081 |
| G46N | 0.112 ± 0.13 |
| G46Q | -0.206 ± 0.11 |
| G46C | -0.202 ± 0.16 |
| G46H | -0.238 ± 0.19 |
| G46E | 0.047 ± 0.064 |
| G46A | -0.206 ± 0.092 |
| G46T | -0.202 ± 0.095 |
| G46K | 0.019 ± 0.12 |
| G46Y | 0.044 ± 0.17 |
| G46S | -0.066 ± 0.07 |
| G46I | -0.223 ± 0.18 |
| G46L | -0.134 ± 0.068 |
| G46M | -0.276 ± 0.14 |
| G46P | -0.324 ± 0.093 |
| G46W | -0.429 ± 0.17 |
| G46R | -0.031 ± 0.067 |
| L49M | -0.205 ± 0.13 |
| L49A | -0.159 ± 0.068 |
| L49K | -0.733 ± 0.14 |

| Variant | abundance fitness |
| --- | --- |
| L49I | 0.117 ± 0.18 |
| L49G | -0.286 ± 0.068 |
| L49F | -0.343 ± 0.19 |
| L49E | -0.377 ± 0.081 |
| L49C | -0.108 ± 0.066 |
| L49H | -0.343 ± 0.062 |
| N36E | 0.099 ± 0.081 |
| N36V | -0.113 ± 0.059 |
| N36D | -0.257 ± 0.16 |
| N36K | -0.478 ± 0.12 |
| N36A | -0.104 ± 0.06 |
| N36S | -0.038 ± 0.077 |
| N36G | -0.093 ± 0.067 |
| N36I | -0.127 ± 0.16 |
| N36M | -0.07 ± 0.084 |
| N36F | -0.189 ± 0.093 |
| N36H | -0.275 ± 0.18 |
| N36P | 0.108 ± 0.13 |
| N36L | -0.145 ± 0.069 |
| N36T | -0.125 ± 0.061 |
| N36C | -0.116 ± 0.083 |
| G41C | -0.408 ± 0.095 |
| G41F | -0.259 ± 0.18 |
| G41N | -0.146 ± 0.22 |

| Variant | abundance fitness |
| --- | --- |
| G41K | -0.169 ± 0.12 |
| G41I | -0.673 ± 0.11 |
| G41W | -0.797 ± 0.072 |
| G41S | -0.436 ± 0.12 |
| G41L | -0.437 ± 0.061 |
| G41T | -0.083 ± 0.095 |
| G41H | -0.682 ± 0.36 |
| G41Q | -0.076 ± 0.086 |
| G41E | -0.191 ± 0.088 |
| G41V | -0.434 ± 0.088 |
| G41Y | -0.395 ± 0.2 |
| G41R | -0.216 ± 0.067 |
| G41D | -0.088 ± 0.15 |
| G41P | -0.025 ± 0.12 |
| G41M | -0.386 ± 0.09 |
| G41A | -0.139 ± 0.058 |
| H42M | -0.162 ± 0.16 |
| H42D | 0.078 ± 0.076 |
| H42G | -0.301 ± 0.057 |
| H42I | -0.282 ± 0.24 |
| H42C | -0.005 ± 0.14 |
| H42L | 0.178 ± 0.084 |
| H42Q | -0.032 ± 0.11 |
| H42Y | -0.393 ± 0.12 |

| Variant | abundance fitness |
| --- | --- |
| H42E | 0.16 ± 0.08 |
| H42S | 0.022 ± 0.065 |
| H42P | -0.053 ± 0.15 |
| H42A | -0.147 ± 0.076 |
| H42K | -0.113 ± 0.064 |
| H42R | -0.19 ± 0.064 |
| H42T | 0.008 ± 0.14 |
| H42V | -0.064 ± 0.081 |
| H42W | -0.233 ± 0.064 |
| L37K | -0.502 ± 0.14 |
| L37F | -0.262 ± 0.22 |
| L37V | -0.109 ± 0.064 |
| L37A | -0.601 ± 0.071 |
| L37R | -0.565 ± 0.076 |
| L37C | -0.3 ± 0.13 |
| L37E | -0.407 ± 0.068 |
| L37H | -0.807 ± 0.17 |
| L37M | -0.178 ± 0.1 |
| L37D | -0.249 ± 0.14 |
| L37S | -0.614 ± 0.12 |
| L37T | -0.395 ± 0.12 |
| L37I | -0.322 ± 0.23 |
| L37W | -0.731 ± 0.17 |
| L37Y | -0.38 ± 0.17 |

| Variant | abundance fitness |
| --- | --- |
| L37P | -0.442 ± 0.14 |
| L37G | -0.288 ± 0.075 |
| L37Q | -0.599 ± 0.1 |
| V45D | -0.434 ± 0.12 |
| V45T | -0.585 ± 0.12 |
| V45M | -0.057 ± 0.07 |
| V45H | 0.221 ± 0.11 |
| V45Q | -0.092 ± 0.12 |
| V45N | -0.155 ± 0.089 |
| V45G | 0.107 ± 0.061 |
| V45W | -0.116 ± 0.094 |
| V45C | -0.242 ± 0.16 |
| V45K | 0.313 ± 0.1 |
| V45Y | 0.066 ± 0.062 |
| V45P | -0.361 ± 0.12 |
| V45S | -0.11 ± 0.072 |
| V45L | -0.063 ± 0.073 |
| V45A | 0.022 ± 0.087 |
| V45R | 0.108 ± 0.051 |
| V45E | 0.041 ± 0.083 |
| V45I | 0.29 ± 0.12 |
| F43R | -0.138 ± 0.071 |
| F43C | 0.101 ± 0.13 |
